Consider two substances from US20140288007A1.

As usually defined, the Ki is the dissociation constant of the complex between target and ligand, obtained from inhibition or displacement. A lower Ki goes with higher affinity.

The target in assay [1] is KgpcatΔABM1 (enriched fraction from P. gingivalis mutant ECR368) (Porphyromonas gingivalis) (UniProt Q51817). Briefly: cell-based or functional assay.
For assay [2] the target is unchanged. Briefly: enzyme inhibition kinetics (non-competitive, Ki′), chromogenic substrate GPKNa, secondary plot of Vmax observed against inhibitor concentration.

Several values for one entry are separate records, joined by “and”; a condition that tells them apart may be missing. Equal values may be shown once.

Regarding “recombinant RgpB propeptide (from UniProt P95493 25-229)”, in assay [1], the % Proteolytic Activity (GPKNa; inhibitor 50 mg/L) is 118%.
Turning to “recombinant Kgp propeptide (from UniProt Q51817 25-1732)”, in assay [1], the inhibition of KgpcatΔABM1 activity, chromogenic substrate GPKNa is 75% and 60%; the inhibition of KgpcatΔABM1 enriched fraction activity, fluorescent BSA substrate (DQ BSA), 2 h was found to be 66%. The same substance yielded an inhibition constant Ki in assay [2] of 2.01 µM.
